Target: the molecule itself
Experiment: SEC

| Protein | stoichiometry N |
| --- | --- |
| human Hsp90α MC two-domain construct (domain or fragment) not shown | 2 |
| human Hsp90α full-length protein with part of the charged linker between N and M removed (Hsp90Δ) (natural protein) not shown | 2 |

From PMC3143201 (Journal of molecular biology, 2011)
